Laboratory results from patent US20190092852A1 (Genentech, published 2019).

T1: biotinylated cyno IL-33 (cynomolgus monkey, UniProt A0A2K5W3I1 112-269, biotin-labeled with EZ-LINK NHS-PEG4-Biotin)
T1 construct: also called biotin-cyIL-33
T1 sequence: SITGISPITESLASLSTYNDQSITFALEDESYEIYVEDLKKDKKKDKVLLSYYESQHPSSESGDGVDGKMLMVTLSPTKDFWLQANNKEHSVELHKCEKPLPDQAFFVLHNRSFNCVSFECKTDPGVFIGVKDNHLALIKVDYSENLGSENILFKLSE

T2: biotinylated human IL-33 (human, UniProt O95760 112-270, biotin-labeled with EZ-LINK NHS-PEG4-Biotin)
T2 construct: also called biotin-huIL-33
T2 sequence (looked up): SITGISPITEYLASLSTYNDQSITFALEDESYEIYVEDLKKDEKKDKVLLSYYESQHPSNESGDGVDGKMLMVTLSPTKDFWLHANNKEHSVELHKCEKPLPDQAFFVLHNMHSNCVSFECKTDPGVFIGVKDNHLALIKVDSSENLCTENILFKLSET

T3: human IL-33 (R&D Systems, #3625-IL-010/CF) (human, UniProt O95760 112-270)
T3 sequence (looked up): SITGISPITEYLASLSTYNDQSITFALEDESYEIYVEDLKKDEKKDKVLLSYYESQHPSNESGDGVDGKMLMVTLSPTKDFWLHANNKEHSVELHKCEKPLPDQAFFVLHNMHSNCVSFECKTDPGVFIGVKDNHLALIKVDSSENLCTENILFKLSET

T4: cyno IL-33 N-His (cynomolgus monkey)
T4 chain: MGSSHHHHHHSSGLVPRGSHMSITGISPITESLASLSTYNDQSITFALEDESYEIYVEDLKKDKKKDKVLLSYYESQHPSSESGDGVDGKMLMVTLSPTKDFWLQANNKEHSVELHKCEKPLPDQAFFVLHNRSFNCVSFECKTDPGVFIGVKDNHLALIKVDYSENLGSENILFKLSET


Assays:
[1] = biological target: T1, biotinylated cyno IL-33; test: competitive ELISA, biotin-cyIL-33 to coated hST2-Fc
Procedure, shortened: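 Recombinant human ST2-Fc coated at 1 μg/ml; biotin-IL-33 (final 20 pM human, 45 pM cyno) premixed 1 h RT with serially diluted antibody (0–300 nM final), then bound to ST2-Fc 1 h RT. Streptavidin-polyHRP/TMB, A450; IC₅₀ from four-parameter fit, max blocking relative to IL-33-alone signal minus background.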

[2] = biological target: T2, biotinylated human IL-33; test: competitive ELISA, biotin-huIL-33 to coated hST2-Fc
Procedure: The ability of the anti-IL-33 antibody 10C12.38.H6.87Y.58I IgG4 and each anti-IL-33 antibody listed in Table 5 (RG1-RG20) to block either human IL-33 or cyno IL-33 binding to human ST2 receptor was tested in a competitive binding ELISA. Briefly, 1 μg/ml of recombinant human ST2-Fc chimera protein prepared in coating buffer (50 mM sodium carbonate, pH 9.6) was coated on a 384-well MAXISORP® plate (Nalgene Nunc International; Rochester, N.Y.) and incubated overnight at 4° C. On the next day, non-specific binding was blocked with PBS containing 0.5% (w/v) solution of bovine serum albumin (BSA). Fixed concentrations of biotinylated human or cyno IL-33 prepared in assay buffer (25 mM PBS, pH 7.2, 0.1% BSA, 0.05% TWEEN®-20) were mixed with an equal volume of serially-diluted anti-IL-33 antibodies or assay buffer alone and incubated for 1 h at room temperature. The final assay concentrations of biotinylated human IL-33 or cyno IL-33 were 20 pM and 45 pM, respectively, and the final assay concentration of each antibody ranged from 0-300 nM. The pre-mixed solutions were added to the ST2-Fc coated plate and incubated for 1 h at room temperature. The binding of biotinylated IL-33 to coated ST2-Fc was detected by the sequential addition of Streptavidin Poly-HRP80 (Fitzgerald; Buckinghamshire, UK) and 3,3′,5,5′-tetramethyl benzidine (TMB) Microwell Peroxidase Substrate System (KPL; Gaithersburg, Md.). The absorbance (450 nm) was recorded using a […] ASCENT® plate reader (Thermo Scientific; Rockford, Ill.). The binding activity (%) of biotin-IL-33 to ST2 in the presence of anti-IL-33 was plotted as a function of antibody concentration. The data generated were fitted to a four-parameter equation to determine IC₅₀ values for each antibody (FIGS. 25A and 25B) using Prism software (Graphpad Software; La Jolla, Calif.). The maximum blocking (%) of each antibody was calculated as the ratio of the reduction in signal measured in the presence of antibody relative to the difference between the signal with IL-33 alone and background measurements.

[3] = biological target: T3, human IL-33 (R&D Systems, …); test: cell-based or functional assay
[4] = biological target: T3, human IL-33 (R&D Systems, …); test: cell-based or functional assay; remark: listed apart in the source
[5] = biological target: T3, human IL-33 (R&D Systems, …); test: SPR Biacore T200, 37 C
Procedure, shortened: (§1)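 Antibodies captured via anti-Fc on CM5 chip; IL-33 injected at 3.7–100 nM (three-fold series), 4 min association, 10 min dissociation, 30 μl/min, ADA pH 7.4 buffer with 0.15 M NaCl, EDTA, Tween-20, at 25 °C or 37 °C. KD = koff/kon from 1:1 Langmuir fit; t1/2 = ln(2)/(60*koff).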

[6] = biological target: T4, cyno IL-33 N-His; test: SPR Biacore T200, 37 C
Procedure, shortened: as §1

| IC50 [1] | Maximum Blocking [1] | IC50 [2] | Maximum Blocking [2] | Ph-p38 MFI at 2 nM Ab (500 pM human IL-33, primary basophils) [3] | Ph-p38 MFI at 0.4 nM Ab (500 pM human IL-33, primary basophils) [4] | Kd [5] | koff [5] | kon [5] | t1/2 [5] | Kd [6] | koff [6] | kon [6] | t1/2 [6] | Binder |
| --- | --- | --- | --- | --- | --- | --- | --- | --- | --- | --- | --- | --- | --- | --- |
| 47 nM | 42% | 0.23 nM | 88% | 49 MFI | 119 MFI | 0.462 nM | 0.000498 s⁻¹ | 1.08e+06 M⁻¹ s⁻¹ | 23 min | 4.13 nM | 0.00114 s⁻¹ | 277000 M⁻¹ s⁻¹ | 10 min | H4H9659P (antibody, IgG4, V domains shown, also called RG7) VH: QVQLVQSGAEVKKPGASVKVSCKASGYTFNSYGISWVRQAPGQGLEWMGWISSHNGNSHYVQKFQGRVSMTTDTSTSTAYMELRSLRSDDTAVYYCARHSYTTSWYGGFDYWGQGTLVTVSS VL: DIQMTQSPSSVSASVGDRVTITCRASQGFSSWLAWYQQKPGKAPQLLIYAASSLQSGVPSRFSGSGSGSDFTLTISSLQPEDFATYYCQQANSFPLTFGGGTKVEIK |
| 0.43 nM | 87% | 0.021 nM | 92% | 23 MFI | 34 MFI | 0.0889 nM | 0.000547 s⁻¹ | 6.16e+06 M⁻¹ s⁻¹ | 21 min | 0.476 nM | 0.000804 s⁻¹ | 1.69e+06 M⁻¹ s⁻¹ | 14 min | 10C12.38.H6.87Y.58I IgG4 (antibody, V domains shown, also called anti-IL33 10C12.38.H6.87Y.58I IgG4) VH: EVQLVESGGGLVQPGGSLRLSCAASGFTFSSFSMSWVRQAPGKGLEWVATISGGKTFTDYVDSVKGRFTISRDDSKNTLYLQMNSLRAEDTAVYYCTRANYGNWFFEVWGQGTLVTVSS VL: EIVLTQSPATLSLSPGERATLSCRASESVAKYGLSLLNWFQQKPGQPPRLLIFAASNRGSGIPARFSGSGSGTDFTLTISSLEPEDFAVYYCQQSKEVPFTFGQGTKVEIKR |
